# Measurements: doi:10.1101/2024.04.04.584535, “Human Saposin B Ligand Binding and Presentation to α-Galactosidase A” (bioRxiv, 2024)
# B1: Saposin D (natural protein, human, UniProt P07602 405-486, looked up)
# chain: DGGFCEVCKKLVGYLDRNLEKNSTKQEILAALEKGCSFLPDPYQKQCDQFVAEYEPVLIEILVEVMDPSFVCLKIGACPSAH
# notes: saposin D, the mature cut product of prosaposin (UniProt P07602); Tag printed as enterokinase-cleavable N-terminal His8-DDDDK-GAS; GAS probably left after cleavage (surmised); also called SapD; source: E. coli Shuffle T7 Express, purified (heat shock, Ni agarose, enterokinase cleavage, SEC); not shown: His8, N-terminal, cleaved
# B2: α-galactosidase A (GLA) (Homo sapiens) (protein)
# chain: LDNGLARTPTMGWLHWERFMCNLDCQEEPDSCISEKLFMEMAELMVSEGWKDAGYEYLCIDDCWMAPQRDSEGRLQADPQRFPHGIRQLANYVHSKGLKLGIYADVGNKTCAGFPGSFGYYDIDAQTFADWGVDLLKFDGCYCDSLENLADGYKHMSLALNRTGRSIVYSCEWPLYMWPFQKPNYTEIRQYCNHWRNFADIDDSWKSIKSILDWTSFNQERIVDVAGPGGWNDPDMLVIGNFGLSWNQQVTQMALWAIMAAPLFMSNDLRHISPQAKALLQDKDVIAINQDPLGKQGYQLRQGDNFEVWERPLSGLAWAVAMINRQEIGGPRSYTIAVASLGKGVACNPACFITQLLPVKRKLGFYEWTSRLRSHINPTGTVLLQLENTMQMSLKDLL
# notes: wild-type human GLA, C-terminal 2x-FLAG, Sf9 expressed
# B3: α-galactosidase A D170A (catalytic nucleophile mutant) (enzyme, human)
# chain: LDNGLARTPTMGWLHWERFMCNLDCQEEPDSCISEKLFMEMAELMVSEGWKDAGYEYLCIDDCWMAPQRDSEGRLQADPQRFPHGIRQLANYVHSKGLKLGIYADVGNKTCAGFPGSFGYYDIDAQTFADWGVDLLKFAGCYCDSLENLADGYKHMSLALNRTGRSIVYSCEWPLYMWPFQKPNYTEIRQYCNHWRNFADIDDSWKSIKSILDWTSFNQERIVDVAGPGGWNDPDMLVIGNFGLSWNQQVTQMALWAIMAAPLFMSNDLRHISPQAKALLQDKDVIAINQDPLGKQGYQLRQGDNFEVWERPLSGLAWAVAMINRQEIGGPRSYTIAVASLGKGVACNPACFITQLLPVKRKLGFYEWTSRLRSHINPTGTVLLQLENTMQMSLKDLL
# notes: human α-galactosidase A (UniProt P06280), D170A mutant; Secreted into the Sf9 supernatant, so the signal peptide is probably removed (surmised); Glycosylated; Homodimer; also called GLA^D170A; GLA
# Legend:
# [1] = molecular target: T1, SapD (saposin D) (Homo sapiens, UniProt P07602); test: NBD fluorescence equilibrium binding, acidic pH only
# T1 construct: gene PSAP; mature saposin D, E. coli expressed
# T1 sequence (P07602 405-486): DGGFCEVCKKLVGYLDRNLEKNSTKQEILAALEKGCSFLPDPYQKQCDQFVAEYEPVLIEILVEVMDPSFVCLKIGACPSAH
# [2] = molecular target: T2, SapB (saposin B; sphingolipid activator protein B) (Homo sapiens, UniProt P07602); test: NBD fluorescence equilibrium binding (pH […] h); also SEC co-migration and LC-MS of co-crystals; design: gene PSAP; mature saposin B, E. coli expressed (SapB dimer)
# T2 sequence (P07602 195-273): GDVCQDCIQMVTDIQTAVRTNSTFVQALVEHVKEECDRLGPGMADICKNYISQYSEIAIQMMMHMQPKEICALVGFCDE
# [3] = molecular target: T3, α-galactosidase A, wild type (human, UniProt P06280 32-429)
# T3 sequence (looked up): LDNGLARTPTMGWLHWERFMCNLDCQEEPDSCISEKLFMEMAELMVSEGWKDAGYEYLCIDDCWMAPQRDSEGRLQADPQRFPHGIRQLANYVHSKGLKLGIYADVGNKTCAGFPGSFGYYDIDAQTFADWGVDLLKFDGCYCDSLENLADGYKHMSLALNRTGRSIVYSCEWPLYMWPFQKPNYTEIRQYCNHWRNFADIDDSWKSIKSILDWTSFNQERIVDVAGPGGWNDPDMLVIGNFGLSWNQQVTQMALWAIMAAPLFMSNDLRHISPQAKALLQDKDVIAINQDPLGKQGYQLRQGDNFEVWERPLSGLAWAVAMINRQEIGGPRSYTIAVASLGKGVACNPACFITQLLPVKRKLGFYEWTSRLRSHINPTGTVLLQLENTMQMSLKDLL
# [4] = molecular target: T2, SapB (saposin B; sphingolipid activator protein B); test: NBD fluorescence equilibrium binding (pH […] days), weak; design: gene PSAP; mature saposin B, E. coli expressed
# [5] = molecular target: Sphingolipid activator protein B (saposin B) (human) (UniProt P07602); test: crystal structure; SapB co-crystallised with Gb3-NBD at about molar equivalence; 3.25 M malonate pH 5, 20 °C; 2.68 Å
# [6] = molecular target: Sphingolipid activator protein B (saposin B) (human) (UniProt P07602); test: cross-linking; BS3 cross-linker (0-1 mM), 10 μM GLA^D170A or GAA, 50-100 μM SapB (with 20% SapB^ANBD in some gels) or 100 μM SapD, 0-200 μM Gb3-NBD, PBS pH 6.5, one hour; Tricine-SDS-PAGE with One-Step Blue stain, in-gel NBD fluorescence and anti-GLA western blot; also at 10 μM SapB^ANBD, 1 μM GLA^D170A, 50 μM Gb3-NBD
# [7] = molecular target: T3, α-galactosidase A, wild type; test: cell-based or functional assay
# [8] = molecular target: B3; test: cross-linking; BS3 cross-linker (0-1 mM), 10 μM GLA^D170A or GAA, 50-100 μM SapB (with 20% SapB^ANBD in some gels) or 100 μM SapD, 0-200 μM Gb3-NBD, PBS pH 6.5, one hour; Tricine-SDS-PAGE with One-Step Blue stain, in-gel NBD fluorescence and anti-GLA western blot; also at 10 μM SapB^ANBD, 1 μM GLA^D170A, 50 μM Gb3-NBD; conditions: both partners purified
# [9] = substrate: O=[N+]([O-])c1ccc(O[C@H]2O[C@H](CO)[C@H](O)[C@H](O)[C@H]2O)cc1; test: purified protein; assay type: biochemical, Homo sapiens
# [10] = molecular target: the molecule itself; test: crystal structure; SapB preincubated with DDAO detergent (~1:47) at pH 5, mixed with GLA^D170A; crystals in 0.1 M Tris pH 8, 1 M ammonium sulfate, 20 °C; 3.53 Å
molecule,measurement,setting,value
CCCCCCCCCCCCC/C=C/[C@@H](O)[C@H](CO[C@@H]1O[C@H](CO)[C@@H](O[C@@H]2O[C@H](CO)[C@H](O[C@H]3O[C@H](CO)[C@H](O)[C@H](O)[C@H]3O)[C@H](O)[C@H]2O)[C@H](O)[C@H]1O)NC(=O)CCCCCCCCCCCNc1ccc([N+](=O)[O-])c2nonc12 [Gb3-NBD],Kd,[1],38 ± 2 µM
same,Kd,[2],5.8 ± 0.5 µM
SapB^ANBD (SapB N21C labelled with IANBD amide) (natural protein),"galactose production from Gb3-NBD by GLA in an 18-hour enzyme-activator assay, relative to wild-type SapB",[3],80%
CCCCCCCCCCCCCCC[C@@H](O)[C@H](CO)NC(=O)CCCCCCCCCCCNc1ccc([N+](=O)[O-])c2nonc12 [Cer-NBD],Kd,[4],> 95 µM
Sphingolipid activator protein B (saposin B) (from UniProt P07602 195-273) (natural protein),stoichiometry N,[5],2
same,stoichiometry N,[6],2
B1,free galactose released from Gb3-NBD by wild-type GLA after 2.5 hours in acidic buffer (Amplex Red galactose assay); SapD at a tenfold molar excess to GLA,[7],~5 µM
same,binding result,[8],binds
B2,Km,[9],9.9 mM
B3,Km,[9],7.4 mM
same,stoichiometry N,[10],2
